From paper PMC12494034 come the findings set out here.

Several values for one entry are separate records, joined by “and”; a condition that tells them apart may be missing. Equal entries are not always repeated.

Experiment in all cases: cryo-EM structure; single-particle analysis of purified HFTV1 virions (DNA-filled and empty particles sorted by 2D classification) in 18% SW buffer (2.47 M NaCl, 89 mM MgCl2, 85 mM MgSO4, 56 mM KCl, 3 mM CaCl2, 48 mM tris-HCl, pH 7.2); focused refinements of head, turrets, portal, tail, baseplate and tail fibers
For assay [1], the target named is tape measure protein gp40 of HFTV1 (Haloferax tailed virus 1 (HFTV1)).
Assay [2] deals with portal protein gp13 of HFTV1 (Haloferax tailed virus 1 (HFTV1)).
In assay [3] the target is tail tube protein gp35 of HFTV1 (Haloferax tailed virus 1 (HFTV1)).
Assay [4] concerns the target portal interface protein gp21 of HFTV1 (Haloferax tailed virus 1 (HFTV1)).
Assay [5] deals with turret base protein gp30 of HFTV1 (Haloferax tailed virus 1 (HFTV1)).
Assay [6] has as its target major capsid protein gp19 of Haloferax tailed virus 1 (HFTV1) (Haloferax tailed virus 1 (HFTV1)).
The target of assay [7] is baseplate-tail connector gp41 of HFTV1 (Haloferax tailed virus 1 (HFTV1)).
For assay [8], the target named is baseplate hub gp44 of HFTV1 (Haloferax tailed virus 1 (HFTV1)).
The target of assay [9] is tail completion protein gp29 of HFTV1 (Haloferax tailed virus 1 (HFTV1)).
Assay [10] concerns the target capsid stabilization protein gp18 of HFTV1 (Haloferax tailed virus 1 (HFTV1)).
The target in assay [11] is head-tail connector gp26 of HFTV1 (Haloferax tailed virus 1 (HFTV1)).
The target in assay [12] is turret head protein gp31 of HFTV1 (Haloferax tailed virus 1 (HFTV1)).
Assay [13] addresses tail fiber protein gp42 of HFTV1 (Haloferax tailed virus 1 (HFTV1)).

As a reminder, the stoichiometry N is the number of molecules, sites or subunits per partner or assembly. “tape measure protein gp40 of HFTV1 (natural protein)” gave a stoichiometry N in assay [1] of 6.
As to “portal protein gp13 of HFTV1 (natural protein)”, the stoichiometry N in [2] worked out at 12.
In assay [3], “tail tube protein gp35 of HFTV1 (natural protein)” had a stoichiometry N of 6.
For “portal interface protein gp21 of HFTV1 (natural protein)”, in [4], the stoichiometry N came to 5.
The substance “turret base protein gp30 of HFTV1 (from UniProt A0A410N6V5 1-115) (natural protein)” had a stoichiometry N in [5] of 6.
On to “major capsid protein gp19 of Haloferax tailed virus 1 (HFTV1) (natural protein)”, for which the stoichiometry N in assay [6] is 5 and 6.
Substance “baseplate-tail connector gp41 of HFTV1 (natural protein)” showed a stoichiometry N in [7] of 3.
“baseplate hub gp44 of HFTV1 (natural protein)”: the stoichiometry N in [8] was determined as 3.
Turning to “tail completion protein gp29 of HFTV1 (natural protein)”, in [9], the stoichiometry N turned out to be 6.
In assay [10], “capsid stabilization protein gp18 of HFTV1 (natural protein)” gave a stoichiometry N of 3.
In assay [11], “head-tail connector gp26 of HFTV1 (natural protein)” gave a stoichiometry N of 12.
In the case of “turret head protein gp31 of HFTV1 (natural protein)”, the stoichiometry N in assay [12] came to 3.
For “tail fiber protein gp42 of HFTV1 (natural protein)”, in [13], the stoichiometry N is 3.
